# Laboratory results: US9879306B2, “Luciferase biosensors for cAMP” (PROMEGA CORPORATION, priority 2008, dated 2018)
# Substitutions are numbered along the chain they refer to. Names may count otherwise.
# T1: GPR41 (Homo sapiens, UniProt O14843)
# T1 sequence (O14843 1-346): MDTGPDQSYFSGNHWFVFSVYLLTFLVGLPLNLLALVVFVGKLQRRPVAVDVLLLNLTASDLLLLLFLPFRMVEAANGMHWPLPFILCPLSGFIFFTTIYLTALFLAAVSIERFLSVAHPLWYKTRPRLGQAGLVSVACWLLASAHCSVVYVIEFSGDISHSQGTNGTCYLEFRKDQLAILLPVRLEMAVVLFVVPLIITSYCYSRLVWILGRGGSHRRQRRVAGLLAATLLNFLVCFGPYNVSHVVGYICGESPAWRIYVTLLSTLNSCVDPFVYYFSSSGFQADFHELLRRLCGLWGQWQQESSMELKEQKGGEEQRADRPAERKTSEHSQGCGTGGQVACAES
# B1: L9-Q: L9 background with Luc2.0 K541Q; SEQ ID NO:96, 97 (protein)
# chain: MPGAVGKVVPFFEAKVVDLDTGKTLGVNQRGELCVRGPMIMSGYVNNPEATNALIDKDGWLHSGDIAYWDEDEHFFIVDRLKSLIKYKGYQVAPAELESILLQHPNIFDAGVAGLPDDDAGELPAAVVVLEHGKTMTEKEIVDYVASQVTTAKKLRGGVVFVDEVPKGLTGKLDARKIREILIQAKKGSIAGCGDAGEGMYESFIESLPFLKSLEFSARLKVVDVIGTKVYNDGEQIIAQGDSADSFFIIESGEVKITMKRKGKSEVEENGAVEIARCSRGQYFGELALVTNKPRAASAHAIGTVKCLAMDVQAFERLLGPCMEIMKRNIATYEEQLVALFGTNMDIVAKNIKKGPAPFYPLEDGTAGEQLHKAMKRYALVPGTIAFTDAHIEVDITYAEYFEMSVRLAEAMKRYGLNTNHRIVVCSENSLQFFMPVLGALFIGVAVAPANDIYNERELLNSMGISQPTVVFVSKKGLQKILNVQKKLPIIQKIIIMDSKTDYQGFQSMYTFVTSHLPPGFNEYDFVPESFDRDKTIALIMNSSGSTGLPKGVALPHRTACVRFSHARDPIFGNQIIPDTAILSVVPFHHGFGMFTTLGYLICGFRVVLMYRFEEELFLRSLQDYKIQSALLVPTLFSFFAKSTLIDKYDLSNLHEIASGGAPLSKEVGEAVAKRFHLPGIRQGYGLTETTSAILITPEGV
# B2: 7A1-IL: 7A1 background with Luc2.0 F369I, F518L; SEQ ID NO:70, 71 (protein)
# chain: B1 chain with F12I, F161L, Q184K, I190N, A191W, G192D, C193S, D195C, A196S, G197R
# B3: L9-Y: L9 background with RIIβB F407Y; SEQ ID NO:98, 99 (protein)
# chain: B1 chain with Q184K, F341Y
# B4: 7A1-Q: 7A1 background with Luc2.0 K541Q; SEQ ID NO:62, 63 (protein)
# chain: B1 chain with I190N, A191W, G192D, C193S, D195C, A196S, G197R
# B5: 7A1-ILQ: 7A1 background with Luc2.0 F369I, F518L, K541Q; SEQ ID NO:68, 69 (protein)
# chain: B1 chain with F12I, F161L, I190N, A191W, G192D, C193S, D195C, A196S, G197R
# B6: L9-LY: L9 background with Luc2.0 F518L and RIIβB F407Y; SEQ ID NO:100, 101 (protein)
# chain: B1 chain with F161L, Q184K, F341Y
# B7: L9-QY: L9 background with Luc2.0 K541Q and RIIβB F407Y; SEQ ID NO:90, 91 (protein)
# chain: B1 chain with F341Y
# B8: 7A1-I: 7A1 background with Luc2.0 F369I; SEQ ID NO:66, 67 (protein)
# chain: B1 chain with F12I, Q184K, I190N, A191W, G192D, C193S, D195C, A196S, G197R
# B9: L9-IL: L9 background with Luc2.0 F369I, F518L; SEQ ID NO:84, 85 (protein)
# chain: B1 chain with F12I, F161L, Q184K
# B10: 7A1-IQ: 7A1 background with Luc2.0 F369I, K541Q; SEQ ID NO:23, 24 (protein)
# chain: B1 chain with F12I, I190N, A191W, G192D, C193S, D195C, A196S, G197R
# B11: L9-LQY: L9 background with Luc2.0 F518L, K541Q and RIIβB F407Y; SEQ ID NO:88, 89 (protein)
# chain: B1 chain with F161L, F341Y
# B12: L9-LQ: L9 background with Luc2.0 F518L, K541Q; SEQ ID NO:102, 103 (protein)
# chain: B1 chain with F161L
# B13: L9-ILQ: L9 background with Luc2.0 F369I, F518L, K541Q; SEQ ID NO:86, 87 (protein)
# chain: B1 chain with F12I, F161L
# B14: L9-IQ: L9 background with Luc2.0 F369I, K541Q; SEQ ID NO:74, 75 (protein)
# chain: B1 chain with F12I
# B15: L9-IY: L9 background with Luc2.0 F369I and RIIβB F407Y; SEQ ID NO:76, 77 (protein)
# chain: B1 chain with F12I, Q184K, F341Y
# B16: 7A1-IQY: 7A1 background with Luc2.0 F369I, K541Q and RIIβB F407Y; SEQ ID NO:29, 30 (protein)
# chain: B1 chain with F12I, I190N, A191W, G192D, C193S, D195C, A196S, G197R, F341Y
# B17: L9-IQY: L9 background with Luc2.0 F369I, K541Q and RIIβB F407Y; SEQ ID NO:78, 79 (protein)
# chain: B1 chain with F12I, F341Y
# Molecular target: T1, GPR41
# Test: Sodium proprionate CRC with biosensor variants in HEK293 cells stably expressing GPR41
# Format: cell-based
# Conditions: with FSK 1 μM
# Description: (§1) After 24 hours, the cells were transiently transfected with one of the cAMP biosensor variants (Tables 7A and 7B). After another 24 hours, the cells were equilibrated for 2 hours at room temperature using 5 mM EF-luc in CO2 independent media with 10% FBS. Prior to the addition of the compounds, luminescence was measured. The compounds (12× stock in CO2 independent media without FBS) were then added to the cells. For GPR41 expressing cells, sodium proprionate CRC was added. […] The cells were allowed to incubate another 30 minutes and luminescence read on a Varioskan Flash. EC50 values and fold responses were calculated for each of the clones with each of the compounds with or without FSK. In addition, variants […]7 (Example VIIB), 16A2 (Example VIIB) and GS358 were also screened.
row,Molecule,Fold Response Na proprionate + FSK(1 μM) [fold]
1,B1,5.24
2,B2,4.36
3,B3,3.88
4,B4,4.26
5,B5,5.68
6,B6,5.57
7,B7,10.02
8,B8,6.60
9,B9,7.43
10,B10,3.42
11,B11,13.78
12,B12,7.20
13,B13,10.21
14,B14,5.17

# Same assay, conditions: without FSK, ratio of induced to uninduced signal
row,Molecule,Fold Response Na proprionate [fold]
1,B1,2.57
2,B2,4.66
3,B3,2.17
4,B4,2.26
5,B5,4.09
6,B15,2.53
7,B6,2.07
8,B7,2.01
9,B16,2.42
10,B8,3.07
11,B9,3.67
12,B10,3.66
13,B17,3.82
14,B11,1.95
15,B12,2.83
16,B13,4.13
17,B14,3.41

# Tested on: GPR41
# Test: as above
# Format: cell-based
# Conditions: ratio of RLU of FSK treated well to untreated well
# Description: as §1
row,Molecule,Fold Signal Change [fold]
1,B1,42.0
2,B2,200.0
3,B3,55.8
4,B4,71.6
5,B5,181.8
6,B15,86.4
7,B6,126.7
8,B7,61.3
9,B16,128.0
10,B8,133.9
11,B9,96.7
12,B10,128.0
13,B17,96.0
14,B11,136.0
15,B12,98.6
16,B13,140.4
17,B14,64.0
